Experiments:
[1] = biological target: T1, AnkG 38–855 (AnkG MBD-AI-c protein; MBD + partial AI-c) (rat, UniProt O70511-1 38-855); assay: ITC; VP-ITC MicroCal, 25 °C; proteins in 50 mM Tris-HCl pH 7.8, 1 mM DTT, 1 mM EDTA with 100 mM or 500 mM NaCl as required; who was titrated is not told; settings: both partners purified
T1 construct: numbers count on: rat AnkG NM_001033984.1 (MBD-UPA); also called AnkG WT; source: E. coli BL21 (DE3), purified (Ni2+-NTA, size exclusion)
T1 sequence (looked up): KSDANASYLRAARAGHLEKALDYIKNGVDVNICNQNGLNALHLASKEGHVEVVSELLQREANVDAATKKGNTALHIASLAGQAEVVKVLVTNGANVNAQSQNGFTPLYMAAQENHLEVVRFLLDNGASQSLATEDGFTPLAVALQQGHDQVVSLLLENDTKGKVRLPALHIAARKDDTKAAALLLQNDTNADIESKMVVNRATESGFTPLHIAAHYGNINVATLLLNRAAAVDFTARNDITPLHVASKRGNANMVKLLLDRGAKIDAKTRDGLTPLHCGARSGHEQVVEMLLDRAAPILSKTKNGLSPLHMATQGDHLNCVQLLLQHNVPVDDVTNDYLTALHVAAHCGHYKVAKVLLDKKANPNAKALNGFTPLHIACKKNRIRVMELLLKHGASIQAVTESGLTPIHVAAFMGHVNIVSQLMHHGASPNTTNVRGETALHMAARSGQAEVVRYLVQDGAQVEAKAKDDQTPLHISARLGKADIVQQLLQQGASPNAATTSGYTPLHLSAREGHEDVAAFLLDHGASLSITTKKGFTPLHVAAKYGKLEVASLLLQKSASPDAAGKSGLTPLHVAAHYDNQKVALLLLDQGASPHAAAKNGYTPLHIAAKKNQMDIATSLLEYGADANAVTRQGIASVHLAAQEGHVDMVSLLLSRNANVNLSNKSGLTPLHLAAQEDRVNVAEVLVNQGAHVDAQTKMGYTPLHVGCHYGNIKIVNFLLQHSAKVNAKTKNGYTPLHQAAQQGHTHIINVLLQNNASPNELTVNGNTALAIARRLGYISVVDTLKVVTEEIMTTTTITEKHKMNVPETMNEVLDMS

[2] = biological target: T2, AnkB 28–965 (MBD + AI-c + AI-b) (human, UniProt Q01484-2 28-965); assay: as above; settings: both partners purified
T2 construct: numbers count on: human 220 kDa AnkB NM_020977.3; also called extended MBD containing the entire linker; source: E. coli BL21 (DE3), purified (Ni2+-NTA, size exclusion)
T2 sequence (looked up): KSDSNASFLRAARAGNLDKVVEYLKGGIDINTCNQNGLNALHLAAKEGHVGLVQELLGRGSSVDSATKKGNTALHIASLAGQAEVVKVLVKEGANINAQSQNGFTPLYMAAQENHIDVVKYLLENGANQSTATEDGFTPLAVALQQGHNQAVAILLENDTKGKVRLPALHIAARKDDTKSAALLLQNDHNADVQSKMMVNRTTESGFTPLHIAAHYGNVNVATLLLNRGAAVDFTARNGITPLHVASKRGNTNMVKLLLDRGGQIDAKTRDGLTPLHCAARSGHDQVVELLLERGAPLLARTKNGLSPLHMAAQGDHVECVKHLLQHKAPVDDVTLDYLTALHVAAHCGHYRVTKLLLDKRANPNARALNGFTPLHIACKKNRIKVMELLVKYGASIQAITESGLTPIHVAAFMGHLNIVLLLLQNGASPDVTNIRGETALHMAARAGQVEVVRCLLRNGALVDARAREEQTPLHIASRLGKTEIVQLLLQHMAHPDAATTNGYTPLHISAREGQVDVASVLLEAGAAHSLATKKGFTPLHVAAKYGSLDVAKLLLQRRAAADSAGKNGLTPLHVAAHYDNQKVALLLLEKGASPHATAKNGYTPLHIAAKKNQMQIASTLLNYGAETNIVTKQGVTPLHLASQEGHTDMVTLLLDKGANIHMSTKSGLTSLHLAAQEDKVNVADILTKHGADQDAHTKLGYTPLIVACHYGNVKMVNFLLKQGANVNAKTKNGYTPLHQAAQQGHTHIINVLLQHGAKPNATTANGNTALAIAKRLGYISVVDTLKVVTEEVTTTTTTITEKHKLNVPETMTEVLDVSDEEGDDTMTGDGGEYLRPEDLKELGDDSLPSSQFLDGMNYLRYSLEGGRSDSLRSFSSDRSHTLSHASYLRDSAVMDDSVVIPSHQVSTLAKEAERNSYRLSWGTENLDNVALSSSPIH

B1: Nav1.2 (aa 1035–1129) (domain or fragment, mouse, UniProt B1AWN6 1035-1129, looked up)
chain: KALDEIKPLEDLNNKKDSCISNHTTIEIGKDLNYLKDGNGTTSGIGSSVEKYVVDESDYMSFINNPSLTVTVPIAVGESDFENLNTEEFSSESDM
notes: source: E. coli BL21 (DE3), purified (Ni2+-NTA, size exclusion)
- binding result [1]: binds
- binding result [2]: binds
